We go through three substances from patent US20140248360A1, “NANOPARTICLE TUMOUR VACCINES” (MIDATECH LIMITED, priority 2011, published 2014).

Series [1] can be described thus: Aggregation and solubility of nanoparticle preparations. The conditions noted are these: for NP formed in repeat production: 75% methanol not 95% in the synthesis stage. It counts as physicochemical. How it is done:
Samples were bench spun the supernatant removed and the dark pellet dissolved in 2 ml water, and then transferred to a 10 kDa vivaspin for a total of 4 times 2 ml water washes each of 8 min at 5 Krpm. Nanoparticles (NPs) were removed from the vivaspins and made up to 500 μl with water, they were then subjected to 15 Krpm bench spin to remove any large aggregates.
NP's 2-5 were produced by a variation using 75% methanol not 95% in the synthesis stage.

Series [2] addresses SIINFEKL:K^b complex (SIINFEKL complexed to H-2K^b) on LK^b cells (murine) (UniProt P01901). Put plainly: cell-based or functional assay.
Chain of UniProt P01901 (P01901 22-369 limits assumed, one chain of several): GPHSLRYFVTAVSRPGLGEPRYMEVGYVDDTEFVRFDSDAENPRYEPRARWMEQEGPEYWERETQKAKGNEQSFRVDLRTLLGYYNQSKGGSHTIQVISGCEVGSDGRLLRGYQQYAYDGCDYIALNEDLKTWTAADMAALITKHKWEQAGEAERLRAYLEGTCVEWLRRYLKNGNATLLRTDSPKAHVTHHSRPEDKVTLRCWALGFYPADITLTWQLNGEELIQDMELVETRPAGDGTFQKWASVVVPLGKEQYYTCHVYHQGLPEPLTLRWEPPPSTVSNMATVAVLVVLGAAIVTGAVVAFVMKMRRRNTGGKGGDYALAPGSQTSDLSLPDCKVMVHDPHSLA

With “NP 2: gold nanoparticle, GlcC2 corona, peptide ligand SIINFEKL-N-(CH2)2-SH”, in series [1], the “NP formed in repeat production” value is on record as “‘normal’ NP”.

As for “NP 3: gold nanoparticle, GlcC2 corona, peptide ligand FLSIINFEKL-N-(CH2)2-SH”, in series [1] (300 mM NaOH), the “solubility of NP aggregates in NaOH” value was “total NP solubilisation”. The “NP formed in repeat production” value in series [1] is listed as “formed aggregates”. In addition, the “aggregation of NP after synthesis” value in series [1] (first production, after 15 Krpm bench spin) is recorded as “large near complete aggregation”. In series [1] (water, 10% acetic acid, PBS, DMSO or DMF), the “solubility of NP aggregates” value was “not soluble”.

In the case of “T cell receptor of the SIINFEKL:Kb-specific T hybridoma B3Z (TCR)”, the β-galactosidase measured using a luminescent substrate (B3Z activation); limit of detection as SIINFEKL pulse concentration in series [2] worked out at 5 ng/mL.
